For orientation: Kd means the constant that tells how readily two partners part at equilibrium. A high value points to lower affinity. By koff is commonly meant the rate constant with which the complex falls apart. A higher koff goes with a short-lived complex. As usually defined, the kon is the rate constant with which the complex forms.

The results in this text go back to article PMC2566879.

The target in test [1] is histone H1 coupled to the SPR sensor chip (UniProt P02253). Briefly: SPR.
For test [2], the target named is histone H3/H4 tetramer coupled to the SPR sensor chip (UniProt P84229). Briefly: SPR. (In SPR one partner is held on a chip, and binding of the other changes the refractive index at the surface.)

Chain of UniProt P02253 (P02253 whole entry): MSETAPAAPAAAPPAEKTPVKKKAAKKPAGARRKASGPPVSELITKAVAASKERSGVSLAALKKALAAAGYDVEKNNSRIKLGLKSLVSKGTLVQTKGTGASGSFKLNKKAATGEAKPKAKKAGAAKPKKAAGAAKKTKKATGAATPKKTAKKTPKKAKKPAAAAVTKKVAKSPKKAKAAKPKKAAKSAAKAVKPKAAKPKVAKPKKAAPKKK

Consider “recombinant human somatic NASP (nuclear autoantigenic sperm protein), NH2-terminal 6His tag (from UniProt P49321-2 1-449) (natural protein)”, for which, in test [1], the Kd was found to be 13.8 nM, the dissociation rate constant (koff) was 0.000198 s⁻¹ and the kon was found to be 14400 M⁻¹ s⁻¹. In test [2], this substance returned a dissociation constant (Kd) of 237 nM, a dissociation rate constant (koff) of 0.000691 s⁻¹ and a kon of 2920 M⁻¹ s⁻¹.
